Publication doi:10.1101/219642 (bioRxiv, 2017)

B1: GST fusion protein containing only the Habc domain (1-146) of Stx3 (domain or fragment)
chain: MKDRLEQLKAKQLTQDDDTDEVEIAIDNTAFMDEFFSEIEETRLNIDKISEHVEEAKKLYSIILSAPIPEPKTKDDLEQLTTEIKKRANNVRNKLKSMEKHIEEDEVRSSADLRIRKSQHSVLSRKFVEVMTKYNEAQVDFRERSK
B2: GST fusion protein of the constitutively open mutant of the cytoplasmic region of Stx3 (L165A/E166A) (domain or fragment)
chain: MKDRLEQLKAKQLTQDDDTDEVEIAIDNTAFMDEFFSEIEETRLNIDKISEHVEEAKKLYSIILSAPIPEPKTKDDLEQLTTEIKKRANNVRNKLKSMEKHIEEDEVRSSADLRIRKSQHSVLSRKFVEVMTKYNEAQVDFRERSKGRIQRQLEITGKKTTDEEAAEMLESGNPAIFTSGIIDSQISKQALSEIEGRHKDIVRLESSIKELHDMFMDIAMLVENQGEMLDNIELNVMHTVDHVEKARDETKRAMKYQGQARKKLI

What was measured:
[1] = target: ubiquitin on ubiquitin-coated agarose beads (UniProt P0CG47 1-76, coupled to agarose beads); assay: pull-down
[2] = target: Purified bovine ubiquitin (bovine, UniProt P0CG53 1-76); assay: SPR

| Binder | binding result [1] | Kd [2] [µM] |
| --- | --- | --- |
| B1 | binds | 1360 |
| B2 | binds |  |
